{"source": "patent US20070172423A1", "about": "“Composition and method for modulating vasculogenesis for angiogenesis” (priority 1998, published 2007)", "molecules": {"B1": {"name": "PDGF-CC: recombinant human PDGF-CC core domain homodimer, residues 230-345 of full-length PDGF-C (SEQ ID NO:40), produced in baculovirus infected insect cells (protein)", "chain": "GRKSRVVDLNLLTEEVRLYSCTPRNFSVSIREELKRTDTIFWPGCLLVKRCGGNCACCLHNCNECQCVPSKVTKKYHEVLQLRPKTGVRGLHKSLTDVALEHHEECDCVCRGSTGG", "modifications": "homodimer; PDGF-C core domain"}}, "key": {"infarcted heart area": {"tested_on": "infarcted heart area", "experiment": "Revascularization following heart infarction (LAD ligation), Examples 16-17", "assay_type": "in vivo, mice", "protocol": "Chronic myocardial ischemia was replicated by ligation of the left anterior descending (LAD) coronary artery using anesthetized 10 week old normal C57B16 mice. For PDGF-C treatment mice, 10 μg of recombinant human PDGF-CC core domain protein produced in baculovirus infected insect cells were administered after heart infarction using a subcutaneous osmotic minipump for seven days (ALZET™osmotic pump, DURECT Corporation, Cupertino, Calif.). Seven days after LAD ligation, infarcted hearts were fixed and collected. The PDGF-CC core domain protein (SEQ ID NO: 40) corresponds to corresponds to residues 230-345 of full-length PDGF-C protein i.e. amino acids 230-345 of SEQ ID NO:3. The hearts were sectioned longitudinally into 6 μm sections. Hematoxylin-eosine and immunohistochemical stainings were performed using thrombomodulin as a marker for endothelial cells. Smooth muscle alpha-actin was used as a marker for vascular smooth muscle cells. Infarcted areas and vessel densities were calculated using a Quantinet Q600 image analysis system (Leica, Brussels, Belgium). Data were statistically analyzed using the Student T test.\nThe same experiment as discussed in Example 16 was repeated using 30 μg recombinant PDGF-C per mouse."}, "ischemic myocardium": {"tested_on": "ischemic myocardium", "experiment": "Myocardial ischemia mouse model, Example 18", "protocol": "Acute myocardial ischemia and hind limb ischemia mouse models were performed as previously described (Luttun et al., Nat Med, 2002 1:1; Heymans et al., Nat Med, 1999 5:1135-42). Subcutaneously implanted osmotic minipumps (Alzet, type 2001) were used for continuous protein delivery for 7 days. Human PDGF-CC core domain protein was produced as described (Li et al., Nat Cell Biol, 2000 2:302-309). Fluorescent or color dye microspheres (yellow, 15 μm, Molecular Probes) were administered after maximal vasodilatation (sodium nitroprusside, 50 ng/ml, Sigma) for blood flow measurement, and flow was calculated as described (Carmeliet et al., Nat Med, 1999 5:495-502). For histology, the hearts were harvested seven days after LAD ligation, and sectioned longitudinally (6 μm). Infarcted areas were morphologically inspected after immunohistochemistry staining using thrombomodulin (rabbit anti-TM, for all vessels) and smooth muscle alpha-actin (mouse anti-SMA, for mature SMC covered vessels, Dako), and vessel densities calculated. Gastrocnemius muscles after femoral artery ligation were sectioned transversally and analysed after H&E or immunostainings with the EC marker CD31 (PECAM, rat anti-CD31, Pharmingen). Vessel densities and tissue necrosis/regeneration in the gastrocnemius muscle were analyzed morphometrically using the KS300 image analysis soft ware (Zeiss). Remodeling of collateral vessels in the upper hindlimb after femoral ligation was quantified as reported (Luttun et al., Nat Med, 2002 1:1).\nA previously established mouse model of myocardial ischemia was used to assess whether PDGF-CC is capable of stimulating the revascularization of ischemic myocardium. After coronary ligation, new vessels revascularize the ischemic core from its surrounding border region. For PDGF-CC to stimulate new vessel growth, its receptor, PDGFR-α, should be expressed in the heart. […] To examine whether PDGF-CC could stimulate revascularization of the ischemic myocardium, we delivered, using a minipump, continuously over one week after coronary ligation, recombinant human PDGF-CC core domain protein, which is known to bind and activate PDGFR-α (Li et al., Nat Cell Biol, 2000 2:302-309). […] After seven days, angiogenesis was quantified by counting the number of endothelial cell (EC)-lined vessels in the ischemic area after immunolabeling with thrombomodulin (TM). Vessel maturation (arteriogenesis) was evaluated by counting the arterioles, immunoreactive for smooth muscle cell α-actin (SMA)."}, "[1]": {"tested_on": "ischemic gastrocnemius muscle", "experiment": "Hind limb ischemia mouse model (femoral artery ligation)", "assay_type": "in vivo", "text": "To further verify the angio/arteriogenic activity of PDGF-CC in vivo, the effect of PDGF-CC in an established mouse model of hind limb ischemia is investigated (Luttun et al., Nat Med, 2002 1:1). PDGFR-α expression was quantified by RNAse protection analysis in the gastrocnemius muscle, which becomes highly ischemic after ligation of the femoral artery (Deindl et al., Circ Res, 2001 89:779-86; Couffinhal et al., American Journal of Pathology, 1998 152:1667-1679). Two days after femoral artery ligation, when a fraction of myocytes died due to ischemic necrosis, PDGFR-α transcript levels decreased to 76% of those found in normal muscles (FIG. 37a). […] Revascularization of the ischemic gastrocnemius muscle, which only occurred in those regions where regenerating muscle replaced the necrotic avascular muscle, was scored after continuous delivery, by osmotic minipump, of 4.5 μg PDGF-CC per day for one week after femoral artery ligation. […] PDGF-CC also enlarged the second-generation collateral side branches in the adductor muscle ([…] after saline versus […] after PDGF-CC; N=10; P=0.05). […] Thus, PDGF-CC stimulates revascularization in mouse models of both heart and limb ischemia."}, "PDGFR-α": {"tested_on": "PDGFR-α", "experiment": "PDGFR-α expression in gastrocnemius muscle by RNAse protection analysis", "assay_type": "in vivo, mouse", "conditions": "4.5 μg daily, day 2 after ligation, compared to vehicle", "protocol": "RNase protection analysis (RPA) was performed according to the manufacturer's protocol (Ambion) to investigate gene expression at mRNA level. Riboprobes were prepared using RNA polymerase (Promega) and ^32P-UTP (Amersham). Mouse β-actin cDNA (250 bp, Ambion) was used as an internal control. For Western blot assay, subconfluent cells were rinsed with cold PBS supplemented with 5 µg/ml of antiprotease cocktail, lysed in RIPA buffer and analyzed on 10% acrylamide SDS PAGE in reducing condition. […] The precipitants were analysed on SDS-PAGE, and immunoblotted using a monoclonal anti-phosphotyrosine antibody (Santa Cruz).\nTo further verify the angio/arteriogenic activity of PDGF-CC in vivo, the effect of PDGF-CC in an established mouse model of hind limb ischemia is investigated (Luttun et al., Nat Med, 2002 1:1). PDGFR-α expression was quantified by RNAse protection analysis in the gastrocnemius muscle, which becomes highly ischemic after ligation of the femoral artery (Deindl et al., Circ Res, 2001 89:779-86; Couffinhal et al., American Journal of Pathology, 1998 152:1667-1679). […] Revascularization of the ischemic gastrocnemius muscle, which only occurred in those regions where regenerating muscle replaced the necrotic avascular muscle, was scored after continuous delivery, by osmotic minipump, of 4.5 μg PDGF-CC per day for one week after femoral artery ligation. […]"}, "[2]": {"conditions": "10 μg by osmotic minipump for seven days"}, "[3]": {"conditions": "10 μg by osmotic minipump for seven days, average ±SD"}, "[4]": {"conditions": "4.5 μg/day, minipump, seven days"}, "[5]": {"conditions": "4.5 μg per day for one week after femoral artery ligation"}}}
{"molecule": "B1", "values": [{"measurement": "large vessel (>30 μm) density relative to normal (untreated) mice", "setting": "infarcted heart area; [2]", "result": 114, "unit": "%"}, {"measurement": "medium vessel (10-30 μm) density relative to normal (untreated) mice", "setting": "infarcted heart area; [2]", "result": 111, "unit": "%"}, {"measurement": "small vessel (<10 μm) density relative to normal (untreated) mice", "setting": "infarcted heart area; [2]", "result": 159.4, "unit": "%"}, {"measurement": "large vessel (>30 μm) density", "setting": "infarcted heart area; [3]", "result": "8.3±3.2", "unit": "large vessels/mm^2"}, {"measurement": "medium vessel (10-30 μm) density", "setting": "infarcted heart area; [3]", "result": "14.5±3.7", "unit": "medium vessels/mm^2"}, {"measurement": "small vessel (<10 μm) density", "setting": "infarcted heart area; [3]", "result": "33.2±12.5", "unit": "small vessels/mm^2"}, {"measurement": "total vessel density", "setting": "infarcted heart area; 10 μg by osmotic minipump for seven days, average ±SD, n=6", "result": "56±16.6", "unit": "total vessels/mm^2"}, {"measurement": "total vessel density relative to normal (untreated) mice", "setting": "infarcted heart area; 10 μg by osmotic minipump for seven days, infarcted area", "result": "about 136%"}, {"measurement": "SMA positive large vessel density relative to normal (untreated) mice", "setting": "infarcted heart area; 30 μg per mouse over 7 days", "result": 114, "unit": "%"}, {"measurement": "SMA positive medium vessel density relative to normal (untreated) mice", "setting": "infarcted heart area; 30 μg per mouse over 7 days", "result": 142, "unit": "%"}, {"measurement": "SMA positive small vessel density relative to normal (untreated) mice", "setting": "infarcted heart area; 30 μg per mouse over 7 days", "result": 145, "unit": "%"}, {"measurement": "thrombomodulin positive large vessel density relative to normal (untreated) mice", "setting": "infarcted heart area; 30 μg per mouse over 7 days", "result": 167, "unit": "%"}, {"measurement": "thrombomodulin positive medium vessel density relative to normal (untreated) mice", "setting": "infarcted heart area; 30 μg per mouse over 7 days", "result": 153, "unit": "%"}, {"measurement": "thrombomodulin positive small vessel density relative to normal (untreated) mice", "setting": "infarcted heart area; 30 μg per mouse over 7 days", "result": 147, "unit": "%"}, {"measurement": "total SMA positive vessel density relative to normal (untreated) mice", "setting": "infarcted heart area; 30 μg per mouse over 7 days", "result": 141, "unit": "%"}, {"measurement": "total thrombomodulin positive vessel density relative to normal (untreated) mice", "setting": "infarcted heart area; 30 μg per mouse over 7 days", "result": 151, "unit": "%"}, {"measurement": "TM-positive vessel density", "setting": "ischemic myocardium; 1.5 μg/day, minipump, seven days", "result": "minimally affected"}, {"measurement": "SMA positive vessels", "setting": "ischemic myocardium; 1.5 μg/day, minipump, seven days, ischemic area", "result": "53.1±3.7", "unit": "vessels/mm^2"}, {"measurement": "increase in number of SMA-positive arterioles", "setting": "ischemic myocardium; 1.5 μg/day, minipump, seven days, vs saline", "result": 1.36, "unit": "fold"}, {"measurement": "angiogenesis (TM-positive vessels in ischemic area)", "setting": "ischemic myocardium; [4]", "result": "significantly stimulated"}, {"measurement": "arteriogenesis (SMA-positive arterioles in ischemic area)", "setting": "ischemic myocardium; [4]", "result": "significantly stimulated"}, {"measurement": "blood flow (perfusion of the ischemic myocardial region)", "setting": "ischemic myocardium; 4.5 μg/day, n=7-9", "result": "2.2 ± 0.2", "unit": "mL/min/g"}, {"measurement": "hemorrhage, edema or fibrosis in treated hearts", "setting": "ischemic myocardium; minipump, seven days", "result": "No signs of hemorrhage, edema or fibrosis"}, {"measurement": "tolerability (weight loss, inactivity)", "setting": "ischemic myocardium; minipump, seven days", "result": "no signs of toxicity"}, {"measurement": "vessel density in other organs", "setting": "ischemic myocardium; non-ischemic organs", "result": "no differences"}, {"measurement": "hemorrhage, edema or fibrosis in treated limbs", "setting": "[1]; 4.5 μg per day for one week", "result": "No signs of hemorrhage, edema or fibrosis"}, {"measurement": "angiogenesis (capillary density)", "setting": "[1]; [5]", "result": "increased"}, {"measurement": "arteriogenesis (density of SMA+ vessels)", "setting": "[1]; [5]", "result": "enhanced"}, {"measurement": "extent of ischemic muscle necrosis", "setting": "[1]; [5]", "result": "reduced"}, {"measurement": "skeletal muscle regeneration", "setting": "[1]; [5]", "result": "enhanced"}, {"measurement": "second-generation collateral side branches in the adductor muscle", "setting": "[1]; after femoral artery ligation, N=10", "result": "920±100", "unit": "μm^3"}, {"measurement": "PDGFR-α expression in gastrocnemius muscle", "setting": "PDGFR-α", "result": "almost completely restored"}]}
